Experimental data from the supplement of paper PMC9170038.

Test system: MS2 coat protein
Experiment: apparent KD of MS2 coat protein; higher = weaker reporter binding
Conditions: Eterna round: R107; input ligand: arginine 13.2 mM
Method: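 RNA-MaP round R107: designed RNA switches with theophylline, tryptophan, arginine or FMN aptamers are transcribed on-chip within common flanks. They are titrated with SNAP-549-labelled MS2 coat protein in RNA-MaP buffer (100 mM Tris pH 7.5, 80 mM KCl, 4 mM MgCl2), without ligand or with the indicated ligand. Median apparent KD per design.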

Sequence | apparent KD of MS2 coat protein
UUUACGGGAAACCGAACUAAACAAAGGGAAGGAGCGCCAAACAAGGCAGGUAGGUCGCCCACAUGAGGAUCACCCAUGUGUUGGG [Exclusion Arginine A GF 25] | 32.6 nM
UAUCGUCAGACGGCCGCCACUAGAACAUGAGGAUCACCCAUGUAAGUGGCCGGUCUCCUCAUGACUAGGACCGGGUCUGACGAAU [(Trp1)-(Ms2)-(T)'-(M)'-(Trp2)_Design18] | 9.69 nM
CCAUAAGUACCGGUCCUCAGAUCCUCAUGACGAGGACCGGUACGGCCGCCACUCGAAACAUGAGGAUCACCCAUGUAAUAAUAUU [Brourdmod14] | 19.3 nM
UGCGUACAUGAGGAUCACCCAUGUAUAGAUACCAGUCACCCAUGUGGCCCUUGGCAGCUAACAUGAGGAUCACUACAUGAGGAUC [Exclusion Theophylline A 3] | 24.3 nM
ACGUAAUGCGGAAGGAGCGUCAUUUUAAAACAUGAGGAUCACCCAUGUAAUAUUUUUGUGUGACAGGUAGGUCGCCGAAGUACGA [#07 Same State - Arginine B] | 14.4 nM
ACAUGAGGAUCACCCAUGUCAGGGCACGAUACCAGCUGAUCCGGUGGCCCUUGGCAGCGUGACGUUUGGUCCCGCGGAUCACACG [xxmullin] | 92.4 nM
UAUCCACAUGAGGAUCACCCAUGUAAGGAAGGAGCGGUGAAUGCACCAGGUAGGUCGCCUUGCUGAGGACAGCCGGUGGAUUCGU [Exclusion - Arginine A (Freestyle 24)] | 14.7 nM
AAAAGUAGGUCCAAUAAAACUACAUGUGAAGGAGCGCCCGAAAGGGCAGGUAGGUCGCACAUGAGGAUCACCCAUGUCCUACAAA [ArgEX 7 #OpenEnded] | 50.1 nM
UUCACAUGAUCUGAAUAUACAGAAAAGAAACGAGGACCGGUACGGCCGCCACUCGUGCCGGAAACAUGAGGAUCACCCAUGUGUU [AK1.3 Exclusion TrypA mod IceBolt] | 19.7 nM
ACCUGUACGAAAAGUGCAGGACACGGAAUACGAGGACCGGUACGGCCGCCACUCGGAACCUGAGGAUCACCCUGGUAAAACCGUG [TrypAS 13 #AlternativeMS2 #Zipper #StaticStem] | 19.9 nM
GGCGCGAGCCAACAUGAGGAUCACCCAUGUCGAGGACCGGUACGGCCGCCACUCGAACGAGUGGCGCGCGCGCGCGCGCGCGCGC [Vaa] | 12.2 nM
AGCGUAUAGACGGAUACCAGCGCCGAUUAACAUGAGGAUCACCCAUGUAGUGUGGGUGGACGCCCUUGGCAGCCGAGUAUAGGUA [#07 Exclusion-TheophyllineB] | 391 nM
ACAUGAAUAUCAUCUAUUUAUUGUACUGAAGGAGCGUCCAUGAGGACAGGUAGGUCGCAGUGUAAAACAUGAGGAUCACCCAUGU [Same State - Arginine A #1] | 22.6 nM
CGUAUUACGAAAGUAGUACGUAGUUCGAGUCGAGGACCGGUACGGCCGCCACUCGGACAUGAGGAUCACCCAUGUAGCGAAAGCU [Tryptophan A 23] | 68.2 nM
UUGGGUUUGUGAAGGAGCGGGAAAGAUAUAUAUUUAAUCCUAACAUGAGGAUCACCCAUGUCCCAGGUAGGUCGCGCGGGUUUGG [12.O] | 33.9 nM
UAGCGAUAAUCUGAUACCAGACGUGUACUCUCCUCAGACAUGAGCAUCAGCCAUGUAUGCGUCCCUUGGCAGCAGAGAUAGGAGA [Theo B Ex t5b] | 16.9 nM
AAAUAAAUAACUGAUACCAGUGGACUGACAUGAGGAUCACCCAUGUUGGGUUUUGUUGUCCACCCUUGGCAGCAGGGAUAUAAAA [#24 Exclusion-TheophyllineB] | 24.4 nM
GUAUAUAUGCGAAGGAGCGGGAAAUAUAUAUAUAUAAUCCUAACAUGAGGAUCACCCAUGUCCCAGGUAGGUCGCGCAUAUAUAU [12.B] | 68.7 nM
UGACAGAUAACCGCUGGUGCUCUUGAGUUGCGAGGACCGGUACGGCCGCCACUCGACAACAUGAGGAUCACCCAUGUUGCGGGUC [Soleeror] | 38.3 nM
CAAAUAAGAACAAACAAAUAACGGUUUUCGCGAGGACCGGUACGGCCGCCACUCGUGUGAAAUAACACAUGAGGAUCACCCAUGU [3'end-1] | 31.8 nM
GUAGGUCACCUCAUGAGACCUACCCUGGAAGGAGCGAGCGAAAGCUCAGGUAGGUCGCCAGAAACAUGAGGAUCACCCAUGUAAU [(A)''-(M)'-(A)'-(Arg1)-(Arg2)-(M1)-(M2)_Design3] | 29.4 nM
UGUAUGUGAUCUGAUACCAGUCCAACUGGUAAACCAUGAGGAUCACCCAUGGAAAAUUGGGACCCUUGGCAGCAGAUCGCAUACU | 96.5 nM
AGCACUGUGACGGCCGCCACUAUAUUAGGGUGGUCAGGUUCAUAAAUACAUGAGGAUCACCCAUGUAGGACCGGGUCUCAGUGCA [Omei Trp Exc B A v3] | 11.1 nM
AUAACAUGAGGAUCACCCAUGUAAGCAGAUACCAGCUAGGAAACUAGCCCUUGGCAGCUGCAAUCAUGGGUGUUUGCAGCUGCAA [(M1)-(M2)-(T1)-(T2)-(M)'-(T)'_Design2] | 21.2 nM
AUAUAUACAUGAGGAUCACCCAUGUUAUUUCGAGGACCGGUACGGCCGCCACUCGAUAGAGUGGAAGUAACAUUUGUUAGAUGAU [JR_SSTryptoA_Sub013] | 12.8 nM
AAUGUAUGGCACAUGAGGAUCACCCAUGUGCGAGGACCGGUACGGCCGCCACUCGGUCCUGGGUUCUUAUUACUAUACAUUAAUG [XTryp A #15] | 9.78 nM
GGGCAAGAGGGAAGGAGCGUCGGCUGAGUAACAUGAGGAUCACCCAUGUAGCACAUAGUGUGGCAGGUAGGUCGCCCUCUGCCCU [SS-ArgB7] | 17.5 nM
GCUAGGUCAUCGGCCGCCACUAACGACGGUUCGAACAUGAGGAUCACCCAUGUGCCACAUGCGCAUAGGACCGGGAUGACCUAGC [SSTB NP+V+V2 #6] | 35.7 nM
UGGACGCAACGAGCACGAGGUCGGCAGCUACGAGGACCGGUACGGCCGCCACUCGAGUUACGACAUGAGGAUCACCCAUGUAAGG [theeternabot_exclusion_MS2_Trp_A_45] | 27.9 nM
GACAUGAGGAUCACCCAUGUACCGCGAGAAGGAGCGCGGAUAAACGCAGGUAGGUCGCUCGUGGGCUUAUAUUCAAUUGUAAGCU [Usence] | 24.8 nM

Same assay, conditions: Eterna round: R107; input ligand: none

Sequence | apparent KD of MS2 coat protein
UUUACGGGAAACCGAACUAAACAAAGGGAAGGAGCGCCAAACAAGGCAGGUAGGUCGCCCACAUGAGGAUCACCCAUGUGUUGGG [Exclusion Arginine A GF 25] | 60.3 nM
ACGUAAUGCGGAAGGAGCGUCAUUUUAAAACAUGAGGAUCACCCAUGUAAUAUUUUUGUGUGACAGGUAGGUCGCCGAAGUACGA [#07 Same State - Arginine B] | 12.9 nM
ACAUGAGGAUCACCCAUGUCAGGGCACGAUACCAGCUGAUCCGGUGGCCCUUGGCAGCGUGACGUUUGGUCCCGCGGAUCACACG [xxmullin] | 326 nM
UAUCCACAUGAGGAUCACCCAUGUAAGGAAGGAGCGGUGAAUGCACCAGGUAGGUCGCCUUGCUGAGGACAGCCGGUGGAUUCGU [Exclusion - Arginine A (Freestyle 24)] | 17.7 nM
